Target: T1, AnkG ANK repeats (residues 38-855, R1-24) (UniProt O70511 38-855)
T1 construct: Ankyrin-G (AnkG), ANK repeats R1-24, residues 38-855; In human Q12955 the same residues seem to stand 8 lower (I277 here = I269 there); Cloned into a modified pET32a vector; the tag is said to be removed only for the crystallisation proteins; also called AnkG R1-24; Ankyrin-G ankyrin repeats; source: E. coli BL21 (DE3), purified (Ni-NTA, size-exclusion chromatography)
T1 sequence (looked up): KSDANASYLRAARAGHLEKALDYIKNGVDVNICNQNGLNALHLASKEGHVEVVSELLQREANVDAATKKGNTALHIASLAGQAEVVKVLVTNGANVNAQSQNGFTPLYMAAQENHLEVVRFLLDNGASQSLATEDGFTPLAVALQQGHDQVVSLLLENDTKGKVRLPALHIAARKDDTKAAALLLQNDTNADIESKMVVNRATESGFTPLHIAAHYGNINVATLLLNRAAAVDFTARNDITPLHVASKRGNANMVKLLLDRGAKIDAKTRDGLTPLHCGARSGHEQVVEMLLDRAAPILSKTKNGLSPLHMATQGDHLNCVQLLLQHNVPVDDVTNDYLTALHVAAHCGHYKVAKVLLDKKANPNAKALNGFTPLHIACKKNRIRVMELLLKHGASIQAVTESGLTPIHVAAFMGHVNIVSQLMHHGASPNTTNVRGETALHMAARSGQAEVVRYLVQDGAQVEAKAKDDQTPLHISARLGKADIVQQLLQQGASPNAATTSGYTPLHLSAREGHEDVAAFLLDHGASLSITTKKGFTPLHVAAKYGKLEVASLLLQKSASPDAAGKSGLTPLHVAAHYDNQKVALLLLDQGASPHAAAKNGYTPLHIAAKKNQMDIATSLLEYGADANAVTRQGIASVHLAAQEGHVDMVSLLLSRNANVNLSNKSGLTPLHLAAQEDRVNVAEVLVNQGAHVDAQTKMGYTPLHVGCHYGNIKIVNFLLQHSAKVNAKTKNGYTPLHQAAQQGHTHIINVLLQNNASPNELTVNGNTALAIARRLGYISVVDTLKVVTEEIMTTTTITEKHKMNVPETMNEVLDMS
Assay: ITC; VP-ITC at 25 °C; 50 mM Tris, 100 mM NaCl, 1 mM EDTA, 1 mM DTT, pH 7.8; Nfasc proteins (200 μM) in the syringe, AnkG proteins (20 μM) in the cell; one-site binding model
Settings: both partners purified

B1: Nfasc ankyrin-binding domain (ABD, residues 1187-1214) (domain or fragment, UniProt P97685 1187-1214, looked up)
chain: SDDSLVDYGEGGEGQFNEDGSFIGQYTV
notes: also called Nfasc ABD; source: E. coli BL21 (DE3), purified (Ni-NTA, size-exclusion chromatography)
A Kd of about 220 nM was found for B1 in this work.

Source: article PMC9396398, “Crystal structure of Ankyrin-G in complex with a fragment of Neurofascin reveals binding mechanisms required for integrity of the axon initial segment” (The Journal of Biological Chemistry, 2022)
